Measured values as given in FireProtDB (doi:10.1021/bi00011a035).

Details: Aspergillus oryzae (strain ATCC 42149 / RIB 40), 25 °C, GdnHCl, Absorbance, reversible: yes, whole UniProt chain shown

B1: Guanyl-specific ribonuclease T1 wild type, P00651 (protein)
chain: MMYSKLLTLTTLLLPTALALPSLVERACDYTCGSNCYSSSDVSTAQAAGYQLHEDGETVGSNSYPHKYNNYEGFDFSVSSPYYEWPILSSGDVYSGGSPGADRVVFNENNQLAGVITHTGASGNNFVECT
- denaturant m value (pH 3, beta-alanine 0.1 M): 1.85 kcal/mol/M
- denaturant midpoint (higher = more stable) (pH 3, beta-alanine 0.1 M): 2.42 M
- unfolding free energy (pH 3, beta-alanine 0.1 M): 4.48 kcal/mol
- denaturant m value (pH 3.5, beta-alanine 0.1 M): 1.7 kcal/mol/M
- denaturant midpoint (higher = more stable) (pH 3.5, beta-alanine 0.1 M): 3.4 M
- unfolding free energy (pH 3.5, beta-alanine 0.1 M): 5.78 kcal/mol
- denaturant m value (pH 6, Bis-Tris 0.1 M): 1.36 kcal/mol/M
- denaturant midpoint (higher = more stable) (pH 6, Bis-Tris 0.1 M): 6.49 M
- unfolding free energy (pH 6, Bis-Tris 0.1 M): 8.82 kcal/mol
- denaturant m value (pH 7, HEPES 0.1 M): 1.28 kcal/mol/M
- denaturant midpoint (higher = more stable) (pH 7, HEPES 0.1 M): 7.26 M
- unfolding free energy (pH 7, HEPES 0.1 M): 9.26 kcal/mol
- denaturant m value (pH 8.5, taurine 0.1 M): 1.21 kcal/mol/M
- denaturant midpoint (higher = more stable) (pH 8.5, taurine 0.1 M): 7.69 M
- unfolding free energy (pH 8.5, taurine 0.1 M): 9.3 kcal/mol
